Patent US20150266922

Target: SUMO1 (UniProt P63165)
Sequence (P63165 1-97): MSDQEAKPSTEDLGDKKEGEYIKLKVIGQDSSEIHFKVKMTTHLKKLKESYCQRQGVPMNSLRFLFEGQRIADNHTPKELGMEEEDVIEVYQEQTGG

## recombinant DPP9V285A (insect cells)
  hydrolysis of GP-AMC by DPP9 V285A: the SUBA mutant DPP9V285A was not activated by SUMO1
